Legend:
[1] = biological target: hMPV A1 F monomer (trypsinized monomeric prefusion hMPV F) (human metapneumovirus subgroup A1; …, UniProt H6X1Z1, strain)
[2] = biological target: hMPV A1 F trimer (heated), postfusion hMPV F (human metapneumovirus subgroup A1; …, UniProt H6X1Z1, strain)

Binder	binding result [1]	binding result [2]
MPV491 (antibody, V domains shown) VH: QVQLQESGPGLVKSSQTLSLTCTVSGGSISSVTSHWTWIRQHPGKGLEWIGYIFSSGTTYYSPSLRSRLTMSVDTSKNQFSLQLSSVTAADTAMYYCARGIYCGDSCYKGTDYWGRGTLVTVSS VL: IRLMTQTPVTLPVTPGEPASISCRSSQSLLHSNGYNYLDWYLQKPGQSPQLLIYRGSTRASGVPDRFSGSGSGTEFTLKISRVEAEDVGVYYCMQGLQTPYTFGQGTKLESR	binds	binds
MPV486 (antibody, V domains shown) VH: QVQLVESGGHLVQSGGSLRLSCAASGFTFSNYILNWVRQAPGKGLEWISYITGGSSAIYYADSVKGRFTISRDDAKNSLYLQMNNLRAEDTAVYYCARSHGYDSSGYYYYFAMDVWGQGTTVTVSS VL: QSVLTQPPSASGTPGQRVTISCSGSNSNIESNTVNWYQQIPGTAPKLLIYSDNRRPSGVPDRFSGSKSGTSASLAISGLQSEDEADYYCAAWDDSLIGYVFGTGTKVTV	binds	binds
MPV481 (antibody, V domains shown) VH: QVQLVQSGGGLVKPGGSLRLSCAASGLPFNNAWMNWVRQAPGKGLEWVGRIKSKIDGGTTEYAAPVKGRFTISRDDSENTLYLQMNSLRTEDTAVYYCTTEYYALLSGNYSDCWGQGTLVTVSS VL: IRLMTQSPFSLSLSPGERATLSCRASQSIKRAYLGWYQQKPGQAPRLLIYGASNRATGIPDRFSGSGSGTDFTLTISRLEPEDFAVYYCQQYGDSPGGSFGQGTKLEIR	binds	binds
MPV454 (antibody, V domains shown) VH: QVQLVESGGGLVKPGGSLRLSCSTSGFVFSSYAMHWVRQAPGKGLEHVSAISSTGDNTHYADSVKGRFTISRDNSRGRLYLQMTSVRPEDAALYYCVKDLYSGRFYYFLDDWGQGTRIIVSS VL: DIQVTQSPSSLSASVGDRVTISCRASQNISNYLNWFQQRPGKAPKLLIYVASTLQSGAPSRFSGSGSGTDFTLTITDLQPEDFATYYCQQSYNTPPITFGQGTRLEIK	binds	binds
MPV464 (antibody, V domains shown) VH: QVQLQESGPGLVKPSQTLSLTCTVSGGSVRGGGDYWSWIRRPPGKGLEWIGHIYNSGTTFYNPSLKSRVTISIDTSKNQFSLKLRSVTAADTAVYYCGRVGSRATGLPDWIDPWGQGTLVTVSS VL: SYELTQPPSVSVSPGQTATITCSGTNLGAKYSCWYQQKPGQSPVLVIFQDNKRASGIPARFSASTSGDTATLTISGTQVMDEADYFCQAWDSRTAVFGGGTTLTV	binds	binds
MPV482 (antibody, V domains shown) VH: QVQLVQSGGGVVQPGRSLRLSCAASGFTFSSFAMHWVRQAPGKGLEWVALISDDGNNKYHADSVKGRFTISRDSSKNTLYLQMNSLRGEDTAVYYCARDGSVVGAAAHCDHWGQGTLVTVSS VL: SYELTQPPSVSVSPGQTARITCSGDALPNQCAYWYQQKPGLAPVLLIYKDKERPSGIPERFSGSISGTTVTLTISGVQAEDEADYYCQSSDSSSTVVFGGGTKLTVL	binds	binds
MPV485 (antibody, V domains shown) V domain 1: QVQLQEPGPGLVKPSETLSLTCTVSGGSISSTNSFWGWVRQPPGKGLEWIGSIYYSGTTYYNSSLKSRVTISVDTSKNQFSLRLSSVTAADTAVYYCARQGLTSSWYDGSGLDVWG V domain 2: SYELTQPPSVSVSPGQTASITCSGDKLGNKYACWYQQRPGQSPVLVIYQDTKRPSGIPERFSGSNSGNTATLTISGTQAMDEADYYCQAWDSNTVVFGGGTKLTVL	binds	binds
